This note sets out measurements from PMC6533203.

Data set [1] deals with MT145K SOSIP.664 trimer (SIVcpzPtt (chimpanzee SIV), isolate MT145). The experiment in a line: cryo-EM structure; unliganded MT145K trimer, global resolution ~4.1 Å.
Data set [2] concerns the target CH01 inferred germline-reverted (iGL) antibody. The data set can be described thus: BLI (Octet). The settings on record: parent: est. 0.12; read off a plot.
The target of the next data set is CAP256 UCA. The data set can be described thus: BLI (Octet). The settings on record: parent: est. 0.19; read off a plot.
Data set [3] in a line: pseudovirus neutralization, TZM-bl cells, ID50. The settings on record: glycan lost; control: MT145K virus.

Turning to MT145K SOSIP.664 trimer (complex), the stoichiometry N in data set [1] amounted to 3.
MT145K SOSIP.664 trimer K171E: the response in data set [2] came to 0.015 nm.
Consider MT145K SOSIP.664 trimer N160K, for which the response worked out at 0.04 nm in data set [2] and 0.015 nm with CAP256 UCA.
Turning to MT145K SOSIP.664 trimer R166S, the response in data set [2] was 0.1 nm.

B1: MT145K SOSIP.664 Env trimer (also MT145K Env pseudovirus): MT145K N160A (protein)
parent chain: MKVMGMKYYWWRNSCRSISIKLILIGWIASCFGEENWWVTVYYGVPVWREAKTTLFCASDAKSYSTEAHNIWATQACVPTDPTPQEVLLPNVTEEFNMWENYMVDQMQEDIISLWEQSLKPCVKLTPLCVTLTCNNPTNTSCTNSTDDRLGDMRNCSFNVTTELRDKKRQVYSLFYVEDITAIGNNSTYRLINCNTTAITQACPKTSFEPIPIHYCAPAGFALLKCNDIDYKGNETCKNVSTVHCTHGIKPVATTQLILNGSTADNQTVARIDPSENLAIIQLKDPVKITCRRPGNNTRGQIQIGPAMTFYNIENVVGDTRKAYCEINGTQWAKALNETKEVLRNILRKNISFMVPSGGDPEVTNHHFNCGGEFFYCNTSEIINITKINKTENMTIIPCRIRQIVNSWMRVGKGIFAPPIRGNITCTSNITGMLLEIHKNREDQGEDQDQNNTYVCLTGGNMKDIWRSELYKYKIVEIQPLGVAPTKSRRYAVEKQHHREKRALGLGALFLGFLGAAGSTMGAASVVLTVQARQLLTGIVQQQNNLLRAIEAQQHLLQLSVWGIKQLQARVLAVERYLRDQQLLGLWGCTGKTICPTAVRWNKTWGNISDYQVIWNNYTWQQWDREVNNYTGLIYTLLEEANTQQEKNEKELLELDSWANLWSWFDITNWLWYIKMFLIVVGGIIGLRICFAIGSLINRVRKGYSPLSLQTLIPANQGPDGLGETEKGGGENVRGRSIRLVSGFLPLVWEDLRNLLSFLYHQLRDCASLIWRLLEILGQYSLRGVQQIGTLLHQLRGTLQYWTTEIKNSAISLLDTTAIAVGEGTDRILEAITRLGRGILHIPRRIRQGLERALL
B1: the “other: neutralisation sensitivity” value in data set [3] is recorded as “decreases”.
